Here are results for five substances from article PMC3408336.

In assay [1] the target is SF162 gp120 D474N (HIV-1 SF162 (subtype B)). In words: fluorescence polarisation; fluorescently labelled M48 or M48U1 with purified monomeric recombinant SF162 gp120 (concentrations standardised by ELISA with D7324); LJL Analyst reader; Kd by non-linear regression; results given as fold increase in Kd relative to native SF162 gp120; as in ref. 68.
Assay [2] deals with SF162 gp120 G335R (HIV-1 SF162 (subtype B)). The description is as above.
Assay [3] deals with SF162 gp120 L494V (HIV-1 SF162 (subtype B)). The assay is described as above.
Assay [4] deals with SF162 gp120 S375N (HIV-1 SF162 (subtype B)). Described as above.
Assay [5] concerns the target CD4 mimetic miniprotein M48U1. In words: fluorescence polarization. Particulars: read off a plot.

Consider “CD4 mimetic miniprotein M48U1 (designed binder)”, for which the fold Kd relative to WT SF162 gp120 in assay [1], in assay [2], in assay [3] and in assay [4] was 1 fold in each case. In the case of “SF162 gp120, wild type (monomeric recombinant) G471R”, in assay [5], the ratio to parent worked out at 3.8. The same measure, in the same setting: with “SF162 gp120, wild type (monomeric recombinant) H105Y” the figure was 3.8; with “SF162 gp120, wild type (monomeric recombinant) S375R”, 1900; with “SF162 gp120, wild type (monomeric recombinant) V255M”, 9.6.
